{
  "source": "patent US20140079716A1",
  "about": "(Biogen, published 2014)",
  "key": {"[1]": {"biological_target": "T1, soluble recombinant human lymphotoxin α1β2 (human, UniProt P01374 35-205, limits assumed)", "T1 sequence 1": "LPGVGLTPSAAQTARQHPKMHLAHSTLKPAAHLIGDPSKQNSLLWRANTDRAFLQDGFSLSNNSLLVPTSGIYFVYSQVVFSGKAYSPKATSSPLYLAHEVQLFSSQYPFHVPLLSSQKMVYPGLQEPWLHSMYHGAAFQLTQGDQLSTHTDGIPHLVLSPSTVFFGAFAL", "T1 sequence 2": "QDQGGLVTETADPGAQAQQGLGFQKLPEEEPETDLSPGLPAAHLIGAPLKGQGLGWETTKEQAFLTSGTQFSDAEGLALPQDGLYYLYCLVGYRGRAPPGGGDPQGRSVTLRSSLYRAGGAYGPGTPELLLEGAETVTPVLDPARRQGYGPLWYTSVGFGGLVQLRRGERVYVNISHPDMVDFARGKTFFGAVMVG", "test": "cell-based or functional assay"}, "[2]": {"biological_target": "T2, LTα3 (soluble homotrimer) (UniProt P01374 35-205)", "T2 construct": "Coated on ELISA plates at 1 or 5 ug/ml; also called LTa3", "T2 sequence (looked up)": "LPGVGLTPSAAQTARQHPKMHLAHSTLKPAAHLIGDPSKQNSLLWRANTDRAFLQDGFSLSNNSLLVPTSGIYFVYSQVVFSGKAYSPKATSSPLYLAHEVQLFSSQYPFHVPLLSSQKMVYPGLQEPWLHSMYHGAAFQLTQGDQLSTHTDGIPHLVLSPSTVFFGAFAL", "test": "ELISA on plate-coated LTα3 (1 or 5 ug/ml)", "protocol": "For the LTa3 ELISA, microtiter plates were coated with LTα3 (1 or 5 ug/ml in PBS) then nonspecific binding sites were blocked with a 1% casein buffer. Samples (antibodies, receptor-Ig) were added and binding detected with HRP-conjugated anti-murine Ig antibodies. For assessment of ability of mAbs to block interaction between LTα3 and TNFR-hIg (p55), plates were coated with LTα3 and blocked as described above. Serial dilutions of antibodies were added to plate 30 minutes prior to TNFR-Ig addition. Binding of TNFR-hIg to plate-bound LTα3 was detected with an HPR conjugated anti-human Ig antibody."}, "[3]": {"biological_target": "T3, LTα1β2 on the surface of PMA-treated II-23 cells (UniProt P01374 35-205, limits assumed)", "T3 construct": "whole, on cells; also called surface LT", "T3 sequence 1": "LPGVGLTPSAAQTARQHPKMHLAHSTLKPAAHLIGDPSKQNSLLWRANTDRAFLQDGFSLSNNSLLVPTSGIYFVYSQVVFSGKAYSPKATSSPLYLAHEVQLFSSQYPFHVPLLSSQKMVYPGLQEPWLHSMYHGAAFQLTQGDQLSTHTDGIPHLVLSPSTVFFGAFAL", "T3 sequence 2": "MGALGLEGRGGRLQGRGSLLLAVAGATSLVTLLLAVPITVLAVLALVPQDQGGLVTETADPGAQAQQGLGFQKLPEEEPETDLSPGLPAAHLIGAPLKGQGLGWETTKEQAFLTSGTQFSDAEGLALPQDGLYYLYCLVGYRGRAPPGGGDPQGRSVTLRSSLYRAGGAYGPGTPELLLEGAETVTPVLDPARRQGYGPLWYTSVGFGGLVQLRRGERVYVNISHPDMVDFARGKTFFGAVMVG", "test": "FACS, inhibition of biotin-LTβR-Ig (1 ug/ml) binding to PMA-treated II-23 cells", "protocol": "(§1) II-23 cells were incubated with 50 ng/ml PMA for 4 hours at 37° C. 5% CO2. The cells were washed and 500,000 cells were added to each well of a 96-well plate. The antibody was diluted to the appropriate concentrations and added to the II-23 cells. After a 30 minute incubation period at 4° C., the biotin labeled LTβR-Ig is added to each well for a final concentration of 1 ug/ml. The cells are incubated at 4° C. for an additional 30 minutes, and then washed 3 times. Streptavidin-PE was diluted to 1/500 and added to each well and incubated for 1 hour at 4° C. The cells were washed once and read by FACS analysis. The mean fluorescence intensity is plotted versus antibody concentrations, and an IC50 is determined from a 4-parameter curve fit of the data."}, "[4]": {"biological_target": "T3, LTα1β2 on the surface of PMA-treated …", "test": "competition FACS (II-23 assay, as in FIG. 4): LT-expressing cells, varied antibody, labelled LTβR-Ig; MFI of bound LTβR-Ig", "protocol": "as §1"}, "human LT": {"biological_target": "T4, human LT (human, UniProt P01374 35-205, limits assumed)", "T4 construct": "also called human LTα1β2", "T4 sequence 1": "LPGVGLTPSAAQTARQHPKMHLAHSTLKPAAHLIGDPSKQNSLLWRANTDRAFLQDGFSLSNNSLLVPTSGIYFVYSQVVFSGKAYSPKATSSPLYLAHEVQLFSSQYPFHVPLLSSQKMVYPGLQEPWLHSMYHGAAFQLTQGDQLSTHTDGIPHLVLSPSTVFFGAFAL", "T4 sequence 2": "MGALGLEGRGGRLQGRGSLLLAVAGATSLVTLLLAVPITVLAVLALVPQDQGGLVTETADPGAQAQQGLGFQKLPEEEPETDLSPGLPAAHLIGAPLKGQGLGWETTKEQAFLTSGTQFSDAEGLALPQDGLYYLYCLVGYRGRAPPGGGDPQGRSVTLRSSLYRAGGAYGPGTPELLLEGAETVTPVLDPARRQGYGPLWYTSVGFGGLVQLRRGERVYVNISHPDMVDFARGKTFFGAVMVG", "test": "reagent description; assay not stated"}, "[5]": {"biological_target": "T3, LTα1β2 on the surface of PMA-treated …", "test": "FACS, inhibition of biotin-LTβR-Ig binding to PMA-treated II-23 cells", "protocol": "as §1"}, "[6]": {"biological_target": "T3, LTα1β2 on the surface of PMA-treated …", "test": "competition FACS (II-23 assay): PMA-treated II-23 cells, varied antibody, then biotin-LTβR-Ig at 1 ug/ml, streptavidin-PE; MFI of bound LTβR-Ig", "protocol": "as §1"}},
  "note": "Values joined by “and” are separate entries in the source; they are usually repeats but may differ in a detail not shown here. Equal values may be shown once.",
  "data": [
    {"binder": "LT107 (P5C4.1) (antibody, V domains shown, Murine monoclonal antibody, kappa light chain; also called mAb LT107) VH: QVQLKQSGPGLVQPSQNLSITCTVSGFSLTNYGIHWIRQPPGKGLEWLGVIWSGGSTDHNAAFISRLSISKDNSKSQVFFTMNSLEVDDTAIYYCARNRAYYRYEGGMDYWGQGTSVTVSS VL: DIKMTQSPSSMYASLGERVTITCKASQDINTYLNWFQQKPGKSPMTLIYRADRLLDGVPSRFSGSGSGQDYSLTISSLEDEDMGIYYCQQYDDFPLTFGAGTKLELK", "values": [
      {"measurement": "IC50 nM, inhibition of IL-8 release", "setting": "[1]", "result": 0.53, "unit": "nM"},
      {"measurement": "Maximum % Inhibition of IL-8 release", "setting": "[1]", "result": 95, "unit": "%"},
      {"measurement": "binding result", "setting": "[2]", "result": "no binding"},
      {"measurement": "Maximum % Inhibition", "setting": "[3]", "result": 80, "unit": "%"},
      {"measurement": "IC50 (read off the curve)", "setting": "[4]", "result": "~0.03", "unit": "µg/mL"}
    ]},
    {"binder": "LT108 (P4F2.2) (antibody, V domains shown, also called mAb LT108) VH: QVQLKQSGPGLVQPSQSLSITCTVSGFSLTDYGIHWIRQPPGKGLEWLGVIWSGGSTDHNAVFTSRLNISKDNSKSQVFFKMNSLEPDDTAMYYCARNRAYYRYEGGMDYWGQGTSVTVSS VL: DIKMTQSPSSMYASLGERVTITCKASQDINTYLNWFQQKPGKSPMTLIYRADRLLDGVPSRFSGSGSGQDYSLTISSLEDEDMGIYYCQQYDDFPLTFGAGTKLELK", "values": [
      {"measurement": "IC50 nM, inhibition of IL-8 release", "setting": "[1]", "result": 1.3, "unit": "nM"},
      {"measurement": "binding result", "setting": "[2]", "result": "no binding"}
    ]},
    {"binder": "Murine LTBR-mIgG1 (Fc fusion, UniProt P50284 31-223, looked up, also called mLTBR-mIgG1; mLTβR-mIg; not shown: murine IgG1 part) QLVPPYRIENQTCWDQDKEYYEPMHDVCCSRCPPGEFVFAVCSRSQDTVCKTCPHNSYNEHWNHLSTCQLCRPCDIVLGFEEVAPCTSDRKAECRCQPGMSCVYLDNECVHCEEERLVLCQPGTEAEVTDEIMDTDVNCVPCKPGHFQNTSSPRARCQPHTRCEIQGLVEAAPGTSYSDTICKNPPEPGAMLL", "values": [
      {"measurement": "fold lower affinity than for murine LT", "setting": "human LT", "result": "~2", "unit": "fold"}
    ]},
    {"binder": "LT102 (P1G8.2) (antibody, IgG1, V domains shown, also called mAb LT102; LT012) VH: EVKLVESGGGLVKPGGSLKLSCAVSGFTFSDYYMYWIRQTPEKRLEWVATIGDGTSYTHYPDSVQGRFTISRDYATNNLYLQMTSLRSEDTALYYCARDLGTGPFAYWGQGTLVTVSA VL: DVLMTQTPRSLPVSLGDQASISCRSSQNIVHSNGNTYLEWYLQKPGQSPKLLIYKVSNRFSGVPDRFSGSGSGTDFTLKISRVEAEDLGVYYCFQGSHFPWTFGGGTKLEIK", "values": [
      {"measurement": "IC50 nM, inhibition of IL-8 release", "setting": "[1]", "result": "0.406 nM and 0.991 nM"},
      {"measurement": "Maximum % Inhibition of IL-8 release", "setting": "[1]", "result": 92, "unit": "%"},
      {"measurement": "binding result", "setting": "[2]", "result": "no binding"},
      {"measurement": "potency in an II-23 assay (% blockade)", "setting": "[5]", "result": "> 90", "unit": "%"},
      {"measurement": "Maximum % Inhibition", "setting": "[3]", "result": 98, "unit": "%"},
      {"measurement": "IC50 (read off the curve)", "setting": "[4]", "result": "~0.4", "unit": "µg/mL"},
      {"measurement": "IC50 (read off the curve)", "setting": "[6]", "result": "~3", "unit": "nM"}
    ]},
    {"binder": "LT101 (P1G4.4) / LT103 (P1G9.1) (antibody, V domains shown, Murine monoclonal antibody, kappa light chain; also called LT101/LT103) VH: QVQLQQSGPELVKPGASVQISCKASGYVFSSSWMNWVKQRPGRGLEWIGRIYPGDGDTDYTGKFKGKATLTADKSSNTAYMQLSSLTSVDSAVYFCASGYFDFWGQGTPLTVSS VL: DITMTQSPSSMYASLGERVTITCKASQDMNNYLRWFQQKPGKSPQTLIFRANRLVDGVPSRFSGSGSGQDYSLTISSLEFEDMGIYYCLQHDKFPPTFGGGTKLEIK", "values": [
      {"measurement": "IC50 nM, inhibition of IL-8 release", "setting": "[1]", "result": 1.11, "unit": "nM"},
      {"measurement": "Maximum % Inhibition of IL-8 release", "setting": "[1]", "result": 90, "unit": "%"},
      {"measurement": "Maximum % Inhibition", "setting": "[3]", "result": 77, "unit": "%"},
      {"measurement": "IC50 (read off the curve)", "setting": "[4]", "result": "~0.04", "unit": "µg/mL"}
    ]}
  ]
}
